Test results as given in the RNAGym collection of RNA variant scans (doi:10.1093/nar/gkz1192).

B1: CPEB3 Ribozyme (parent)
chain: UAACAGGGGGCCACAGCAGAAGCGUUCACGUCGCAGCCCCUGUCAGAUUCUGGUGAAUCUGCGAAUUCUGCUGUAUAUCUC

Variants of: B1
Experiment: self-cleavage, relative activity (ratio to wild type); higher = more cleavage; in vitro, sequencing
Outline: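 Relative activity was defined as the cleaved/total read fraction for a variant divided by the same fraction for the unmutated ribozyme. CPEB3 self-cleaving ribozyme libraries were made by rounds of error-prone PCR, barcoded, and transcribed in vitro with T7 RNA polymerase for 5 hours at 37°C, and cleavage ran through transcription plus a 15 min DNase I step before EDTA. Illumina sequencing of template-switched reverse transcripts gave the reads, and DNA sequencing mapped the barcodes. Averages come from three batches, using variants with at least 5 reads.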

Variant | self-cleavage
A13U U60C | 0.64
A13U U66A | 0.52
A13U U66C | 0.48
A13U U66G | 0.81
A13U U67A | 0.7
A13U U67C | 0.3
A13U U69A | 0.74
A13U U69C | 0.71
A13U U69G | 0.85
A13U U72A | 0.77
A13U U72C | 0.96
A13U U72G | 0.76
A13U U74A | 1.23
A13U U74C | 1.28
A13U U76A | 1.11
A13U U76C | 1.17
A13U U78A | 1.21
A13U U78C | 1.23
A13U U80A | 1.25
A13U U80C | 1.18
A13U U80G | 1.27
C14A | 1.17
C14A A15G | 1.1
C14A A18U | 0.49

Variant | self-cleavage
C14A A20G | 0.96
C14A A21U | 0.34
C14A A28U | 0.76
C14A A35G | 1.26
C14A A35U | 0.4
C14A A45G | 1.15
C14A A45U | 0.77
C14A A56G | 1.1
C14A A57U | 1.14
C14A A65G | 0.78
C14A A75U | 1.23
C14A C17G | 0.44
C14A C32A | 0.2
C14A C32U | 0.21
C14A C38G | 0.19
C14A G19A | 0.29
C14A G24C | 0.15
C14A G42A | 0.09
C14A G53A | 1.38
C14A G63A | 0.93
C14A G63U | 1.14
C14A G70U | 0.22
C14A G73U | 1.26
C14A U25C | 0.21

Variant | self-cleavage
C14A U26C | 0.63
C14A U41C | 1.22
C14A U43A | 1.24
C14A U43C | 0.83
C14A U49C | 0.23
C14A U51A | 1.1
C14A U51C | 1.04
C14A U54A | 1.19
C14A U54G | 1.21
C14A U60C | 0.29
C14A U66C | 0.4
C14A U67C | 0.14
C14A U69A | 0.48
C14A U69C | 0.4
C14A U72C | 1.22
C14A U74A | 1.25
C14A U74C | 1.23
C14A U76C | 0.94
C14A U78C | 1.07
C14G | 1.08
C14G A15C | 0.37
C14G A15G | 0.79
C14G A20U | 0.26
C14G A21G | 0.45

Variant | self-cleavage
C14G A21U | 0.16
C14G A35G | 1.24
C14G A56G | 1
C14G A65C | 0.32
C14G A65U | 0.26
C14G C29A | 0.87
C14G C40G | 0.1
C14G G53A | 1.19
C14G G61A | 0.42
C14G U25C | 0.17
C14G U41C | 1.14
C14G U48C | 0.47
C14G U49C | 0.33
C14G U51C | 1.16
C14G U54C | 1.03
C14G U66C | 0.29
C14G U72C | 0.69
C14G U74C | 0.89
C14U | 1.15
C14U A15G | 1.13
C14U A15U | 1.07
C14U A18G | 0.82
C14U A18U | 0.44
C14U A20G | 1.19

Variant | self-cleavage
C14U A20U | 0.4
C14U A21G | 0.78
C14U A28G | 0.76
C14U A28U | 1.21
C14U A35C | 1.11
C14U A35G | 1.38
C14U A35U | 1.04
C14U A47G | 0.7
C14U A47U | 1.21
C14U A56G | 1.23
C14U A56U | 0.5
C14U A57C | 0.66
C14U A57G | 1.1
C14U A64G | 1.17
C14U A64U | 0.61
C14U A65U | 0.34
C14U A75G | 1.23
C14U A75U | 1.23
C14U A77C | 0.53
C14U A77G | 1.34
C14U C17U | 0.87
C14U C23G | 0.12
C14U C29U | 0.72
C14U C32A | 0.2

Variant | self-cleavage
C14U C32G | 0.1
C14U C38A | 0.14
C14U C39A | 0.55
C14U C40A | 0.24
C14U C40U | 1.07
C14U C59A | 0.28
C14U C79A | 1.29
C14U G22A | 0.41
C14U G22C | 0.18
C14U G33A | 0.21
C14U G36A | 0.32
C14U G46A | 0.12
C14U G46U | 0.27
C14U G52C | 1.23
C14U G61C | 0.35
C14U G63A | 1.26
C14U U25A | 0.44
C14U U25C | 0.28
C14U U26A | 0.93
C14U U26C | 0.66
C14U U31A | 0.74
C14U U41A | 0.24
C14U U41C | 1.2
C14U U43A | 1.18

Variant | self-cleavage
C14U U43C | 1.08
C14U U43G | 0.27
C14U U48A | 0.71
C14U U48C | 0.97
C14U U49C | 0.33
C14U U51A | 1.24
C14U U51C | 1.25
C14U U54C | 1.25
C14U U54G | 1.16
C14U U58C | 0.77
C14U U60A | 0.53
C14U U60G | 0.41
C14U U66A | 0.52
C14U U66C | 0.8
C14U U67A | 0.42
C14U U67C | 0.23
C14U U69C | 0.57
C14U U72C | 1.21
C14U U74G | 1.27
C14U U76C | 1.15
C14U U78C | 1.22
C14U U78G | 1.27
C14U U80C | 1.33
A15C | 0.92

Variant | self-cleavage
A15C A18C | 0.35
A15C A18G | 0.41
A15C A18U | 0.32
A15C A20C | 0.19
A15C A20G | 0.66
A15C A20U | 0.35
A15C A21C | 0.26
A15C A21G | 0.49
A15C A21U | 0.34
A15C A28U | 0.8
A15C A35G | 1.08
A15C A45C | 0.37
A15C A45G | 0.88
A15C A45U | 0.45
A15C A47G | 0.85
A15C A47U | 0.17
A15C A56G | 0.68
A15C A56U | 0.3
A15C A57G | 0.43
A15C A57U | 0.54
A15C A64G | 0.62
A15C A65G | 0.46
A15C A65U | 0.17
A15C C17U | 0.35

Variant | self-cleavage
A15C C29U | 0.22
A15C C34U | 0.29
A15C C37U | 0.58
A15C C40U | 0.72
A15C C59U | 0.85
A15C C68U | 0.59
A15C G24A | 0.18
A15C G33C | 0.16
A15C G53C | 0.95
A15C G63A | 0.99
A15C G73A | 1.26
A15C U25A | 0.23
A15C U25C | 0.23
A15C U26C | 0.36
A15C U31A | 0.42
A15C U31C | 0.6
A15C U41A | 0.22
A15C U41C | 1.13
A15C U41G | 0.15
A15C U43C | 0.46
A15C U43G | 0.25
A15C U48C | 0.47
A15C U49A | 0.7
A15C U49C | 0.35

Variant | self-cleavage
A15C U51A | 1.06
A15C U51C | 0.68
A15C U54C | 0.98
A15C U58A | 0.41
A15C U58C | 0.21
A15C U58G | 0.29
A15C U60C | 0.28
A15C U66C | 0.29
A15C U66G | 0.45
A15C U67C | 0.18
A15C U69C | 0.26
A15C U72A | 0.8
A15C U72C | 1.1
A15C U74C | 1.16
A15C U76A | 1.19
A15C U78A | 1.05
A15C U78C | 0.87
A15C U80A | 1.22
A15G | 0.92
A15G A18C | 0.37
A15G A18G | 0.5
A15G A18U | 0.26
A15G A20C | 0.18
A15G A20G | 0.47

Variant | self-cleavage
A15G A20U | 0.24
A15G A21C | 0.35
A15G A21G | 0.49
A15G A21U | 0.33
A15G A28C | 0.53
A15G A28G | 0.49
A15G A28U | 0.39
A15G A35C | 0.45
A15G A35G | 0.68
A15G A35U | 0.53
A15G A45C | 0.31
A15G A45G | 0.66
A15G A45U | 0.44
A15G A47G | 0.87
A15G A47U | 0.64
A15G A56C | 0.35
A15G A56G | 0.62
A15G A56U | 0.39
A15G A57G | 0.63
A15G A57U | 0.56
A15G A64C | 0.25
A15G A64G | 0.65
A15G A64U | 0.33
A15G A65G | 0.39

Variant | self-cleavage
A15G A65U | 0.23
A15G A75G | 0.92
A15G A75U | 1.02
A15G A77C | 1.1
A15G A77G | 1.15
A15G A77U | 0.97
A15G C17A | 0.34
A15G C17U | 0.48
A15G C23A | 0.19
A15G C23G | 0.42
A15G C23U | 0.29
A15G C27A | 0.21
A15G C27U | 0.27
A15G C29A | 0.16
A15G C29G | 0.16
A15G C29U | 0.41
A15G C32A | 0.24
A15G C32G | 0.11
A15G C32U | 0.19
A15G C34A | 0.2
A15G C34G | 0.29
A15G C34U | 0.25
A15G C37A | 0.11
A15G C37G | 0.69

Variant | self-cleavage
A15G C37U | 0.81
A15G C38A | 0.42
A15G C38U | 0.81
A15G C39A | 0.32
A15G C39G | 0.29
A15G C39U | 0.98
A15G C40A | 0.41
A15G C40G | 0.28
A15G C40U | 0.67
A15G C44A | 0.28
A15G C44U | 0.32
A15G C50A | 0.4
A15G C50G | 0.57
A15G C50U | 0.33
A15G C59A | 0.27
A15G C59U | 0.69
A15G C62A | 0.17
A15G C62U | 0.26
A15G C68A | 0.2
A15G C68U | 0.67
A15G C71U | 0.28
A15G C79A | 1.19
A15G C79G | 1.26
A15G C79U | 1.04

Variant | self-cleavage
A15G C81A | 1.16
A15G C81G | 1.09
A15G C81U | 1.02
A15G G16A | 0.33
A15G G16U | 0.25
A15G G19C | 0.49
A15G G19U | 0.28
A15G G22A | 0.22
A15G G22U | 0.46
A15G G24A | 0.39
A15G G24U | 0.12
A15G G30A | 0.33
A15G G30C | 0.27
A15G G30U | 0.42
A15G G33A | 0.24
A15G G33C | 0.29
A15G G33U | 0.12
A15G G36A | 0.34
A15G G36U | 0.3
A15G G42A | 0.15
A15G G42C | 0.25
A15G G46A | 0.38
